Results from paper PMC3902948 (Nucleic Acids Research, 2013).

B1: Strep-Ntr1(1–120) (domain or fragment, S. cerevisiae, UniProt Q06411 1-120, looked up)
chain: MEDSDSNTDKKFFFKKRRIDSYNYSDEEDNNSSMNSDMTYTNDALKTSSGNAPTISKLTKTYGIGAKLLSSMGYVAGKGLGKDGSGITTPIETQSRPMHNAGLGMFSNTNSSNYHSENED
B2: Ntr1(51–110) (domain or fragment, S. cerevisiae, UniProt Q06411 51-110, looked up)
chain: NAPTISKLTKTYGIGAKLLSSMGYVAGKGLGKDGSGITTPIETQSRPMHNAGLGMFSNTN

Target: Prp43-Strep (S. cerevisiae, UniProt P53131 1-767)
Assay: titration of the ATPase activity of Prp43

Prp43-Strep, sequence (P53131 whole entry): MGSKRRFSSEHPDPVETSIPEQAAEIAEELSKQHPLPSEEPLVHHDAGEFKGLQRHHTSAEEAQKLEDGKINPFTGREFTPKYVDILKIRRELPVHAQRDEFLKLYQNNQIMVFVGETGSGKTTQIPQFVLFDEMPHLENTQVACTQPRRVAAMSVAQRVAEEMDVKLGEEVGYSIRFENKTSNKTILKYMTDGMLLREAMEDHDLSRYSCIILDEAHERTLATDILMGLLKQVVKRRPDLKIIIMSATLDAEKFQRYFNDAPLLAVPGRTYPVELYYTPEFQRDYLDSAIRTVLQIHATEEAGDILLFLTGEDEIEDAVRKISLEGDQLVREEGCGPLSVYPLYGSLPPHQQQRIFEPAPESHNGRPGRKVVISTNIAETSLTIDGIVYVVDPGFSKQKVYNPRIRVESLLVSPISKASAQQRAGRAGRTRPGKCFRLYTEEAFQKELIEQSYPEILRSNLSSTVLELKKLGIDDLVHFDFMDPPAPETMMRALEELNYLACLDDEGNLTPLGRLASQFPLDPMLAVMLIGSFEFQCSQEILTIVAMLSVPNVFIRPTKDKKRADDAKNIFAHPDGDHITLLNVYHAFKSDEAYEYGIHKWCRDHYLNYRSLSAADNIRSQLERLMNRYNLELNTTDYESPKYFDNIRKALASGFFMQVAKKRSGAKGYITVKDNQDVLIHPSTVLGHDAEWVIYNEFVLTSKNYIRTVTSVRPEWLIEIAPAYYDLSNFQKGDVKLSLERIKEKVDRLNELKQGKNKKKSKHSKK

Row | Binder | Kd [nM]
1 | B1 | 1490 ± 50
2 | B2 | 2240 ± 110
